Test results as given in doi:10.1101/2020.09.30.318261.

Biological target: SARS-CoV-2 prefusion stabilised spike ectodomain trimer (SARS-CoV-2) (UniProt P0DTC2)
Assay: cryo-EM structure

## SARS-CoV-2 prefusion stabilised spike ectodomain trimer (from UniProt P0DTC2 14-1200) (domain or fragment)
  stoichiometry N: 3
